Results from publication PMC2172211 (The Journal of Cell Biology, 2004).

Molecular target: T1, GST-Patj (Drosophila, UniProt Q9NB04 1-871)
T1 sequence (looked up): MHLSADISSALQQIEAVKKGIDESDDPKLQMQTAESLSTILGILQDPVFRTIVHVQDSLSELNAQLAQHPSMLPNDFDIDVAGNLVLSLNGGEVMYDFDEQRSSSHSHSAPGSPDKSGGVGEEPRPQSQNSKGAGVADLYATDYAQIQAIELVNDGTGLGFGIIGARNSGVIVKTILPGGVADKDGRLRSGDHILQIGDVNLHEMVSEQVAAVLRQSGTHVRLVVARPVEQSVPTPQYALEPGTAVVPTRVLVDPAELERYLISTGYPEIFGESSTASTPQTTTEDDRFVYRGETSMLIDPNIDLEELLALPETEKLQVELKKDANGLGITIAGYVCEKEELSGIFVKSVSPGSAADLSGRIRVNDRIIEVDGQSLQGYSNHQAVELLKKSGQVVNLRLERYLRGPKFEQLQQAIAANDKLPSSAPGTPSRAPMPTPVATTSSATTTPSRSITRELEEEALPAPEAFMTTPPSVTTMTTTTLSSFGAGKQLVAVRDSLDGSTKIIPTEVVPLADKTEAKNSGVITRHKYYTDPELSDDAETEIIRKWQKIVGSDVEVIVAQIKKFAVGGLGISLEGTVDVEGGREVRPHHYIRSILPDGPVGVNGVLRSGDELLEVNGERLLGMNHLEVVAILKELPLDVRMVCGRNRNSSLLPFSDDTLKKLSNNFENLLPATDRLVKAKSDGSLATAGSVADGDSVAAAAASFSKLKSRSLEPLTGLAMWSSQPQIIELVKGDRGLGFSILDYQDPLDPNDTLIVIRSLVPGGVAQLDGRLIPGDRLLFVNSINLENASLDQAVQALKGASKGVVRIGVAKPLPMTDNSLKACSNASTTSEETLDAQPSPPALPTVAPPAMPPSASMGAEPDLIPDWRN
Experiment: pull-down

binding result: binds
B1: His-tagged DaPKC (enzyme, Drosophila, UniProt A1Z9X0 1-606, looked up)
chain: MQKMPSQILNDGSSVSLNSASMNMANTPNSITVKTAYNGQIIITTINKNISYEELCYEIRNICRFPLDQPFTIKWVDEENDPCTISTKMELDEAIRLYEMNFDSQLVIHVFPNVPQAPGLSCDGEDRSIYRRGARRWRKLYRVNGHIFQAKRFNRRAFCAYCQDRIWGLGRQGFKCIQCKLLVHKKCHKLVQKHCTDQPEPLVKERAEESSDPIPVPLPPLPYEAMSGGAEACETHDHAHIVAPPPPEDPLEPGTQRQYSLNDFELIRVIGRGSYAKVLMVELRRTRRIYAMKVIKKALVTDDEDIDWVQTEKHVFETASNHPFLVGLHSCFQTPSRLFFVIEFVRGGDLMYHMQRQRRLPEEHARFYAAEISLALNFLHEKGIIYRDLKLDNVLLDHEGHIKLTDYGMCKEGIRPGDTTSTFCGTPNYIAPEILRGEDYGFSVDWWALGVLLYEMLAGRSPFDLAGASENPDQNTEDYLFQVILEKTIRIPRSLSVRAASVLKGFLNKNPADRLGCHRESAFMDIVSHPFFKNMDWELLERKQVTPPFKPRLDSDRDLANFPPEFTGEAVQLTPDDDHVIDNIDQSEFEGFEYVNPLLMSLEDCV
